The nature of the data set: yeast display, Sf9 membrane polyspecificity reagent, FACS + sequencing; frameworks hold sequencing errors. The essentials:
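Galactose induction of a Saccharomyces cerevisiae BJ5465 synthetic nanobody display library ran 36–48 hours. The cells were then stained for 1 hour at 4 °C with 10% biotinylated, detergent-solubilized Sf9 membrane reagent, pulled down on streptavidin microbeads and FACS-sorted into low and high (top ~1%) gates on expression and reagent-binding fluorescence. Labels for polyreactivity follow the gate of origin.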
Turning to “QVKLVESGGRLVQAGGSLRLSCAASGFTNYAMGWNRQAPGKERELVAAITLSDASTYYADSVKGRFTISRDNAKNTVYLQMNSLKPEDTAVDYCAAKGGRSKSGARALGYWGQGTHVTVSS”, the “polyreactivity (PSR sort gate)” value is “low polyreactivity”.
Under “QVKLVESVGGLVQAGGSLRLTCAASGIIFPVYAMGRYRQAPGKERQLVSAITYSGDRTYYADSVKGRFTISSDNAKNTVYLQMHSLKPEDTAVYYCNARFGVWPYFYNEDDYWGQGTQVTVSS” stands “low polyreactivity”; under “QVKRVESGGGLVQAGGSLRLSCAASGSIFDEYAMGWYIQAPGKERELVAAITRTGGRTYYADSVKGRFTISRENAKNSVYLQMNSLIPEDTAVYFCNAPSRTRYDYWGQGTQVTVSS”, “low polyreactivity”; under “QVLLQEIGGGLVQAGGSLRLCCAASGYISGDQFMGWYRQAPGKEPECVAGIGNGTNSNYADSVKGRFTTSRDNAKNTVYLQMNILKPEDTAVYYCAADPSDGSTLAFWGQGTQVTVSS”, “high polyreactivity”.
Consider “QVLLQESGGCLVQAGGSMRLSCAASGYISSWYPMGWYRQAPGKEREFVATIAPGATTYYADSVKGRFTISRDYAKTTVYLQMNSLKPEDTAVSYCAAGPENNDFYSYWGQGTQVTVSR”, for which the “polyreactivity (PSR sort gate)” value is on record as “low polyreactivity”.
Regarding “QVLLQESGGGLVQAGGSLRLCCAASGYISGDQIMGWYRQAPGKDREFVAGIGNGTNTNYADSVKGRFTTSRDNAKNTVYLQMNSLNPEDTAVYYCPADPSDGSTLAYWGQGTQVTVSS”, the “polyreactivity (PSR sort gate)” value is listed as “high polyreactivity”.
For the sequence “QVLLQESGGGLVQAGGSLRLGCAASGTISHAYYMGRYHQAPGKEREFVAAITYGTNTYYADSVKGRFTISRDNAKNTVYLQMNSLKPEDTAVYYCSATAGYNGAHDYWGQGTQVTVSS”, the “polyreactivity (PSR sort gate)” value was “low polyreactivity”.
Under “QVLLQESGGGLVQAGGSLRLSCAASGNIFSAGGMGWYRQAPVNERELVAGIGTGTSTNYADSVKGRFTISRDNSKNTVYLQMNSMKPEDTAVYYCAAAYYSGLSHWYWGQGTQVTVSS” stands “low polyreactivity”.
On to “QVLLQETGGGLVQAGGSLSLSCAASGTISTDIRMGWYRLAPGKEREFVASIDGCSTTYYADSVKGRFTFSRDNAKNTVYLQMNRLIPEDTSMYYCAAREATEFYLYYWGQGTQVTVSS”, for which the “polyreactivity (PSR sort gate)” value was “low polyreactivity”.
The same measure for “QVLLVESGGGIVQAGGSLRLSCSASGIIFPCYAMGWYRQAPGKERELLAAISSSGSSTYYADSVMGRFTITRDNAKNTVYLQMNSLKPEDTAVYYCAAVRYGMRRMDYWGQGTQVTVSS”: “high polyreactivity”; for “QVLLVESGGGLGQAGGSLRLSCAASGAIFVGYAMGWYRQAPGKEREMVAAISKSGGSTYYADSVKGRFTISRDNAKNTVYLQMKSLKPDDTAVYYCAAYPVRLVYSQHRYLYDYWGQGTQVTVSS”: “high polyreactivity”.
The same measure for “QVLLVESGGGLVQAGGSLRLICDDSGFIFTYYAMGLYRQAPVTEREFVAAIRASGGSTYYSYSVKGRFTISRDKAQNTVYLQMNSLKPEETAVYYCAARYRQRLRSTSYDYWGQGTQVTVSS”: “high polyreactivity”; for “QVLLVESGGGLVQAGGSLRLSCAASGRTFVTNAMGWYTQAPGKERELVAGITRRGGSTYYADSVKGRFTISRDNAKNTVYLQMNSLKPEDTAVYYCARRGDTSTRYYYWGQGTQVTVSS”: “high polyreactivity”; for “QVLLVESGGGLVQAGGSLRLSCAASGRTSFQYAMGWYSQAPGTDRELVAALSWSGGATVYADSVKGRFTISRDNAKNTDYLQMNSLKPEDTAVYYCAKRRRLDQNTCYGLDYWGQGTQGTVSS”: “low polyreactivity”.
Under “QVLLVESGGGLVQAGGSLRLSCAASGSTFFFNAMGSSRQAPGKEWELVATISRDGSTNYADSVKGRFTISRDNAKNTVYLQMNSLKPEDTAVYYCAAGWGWPYHQYDYWGQGTQVTVSS” stands “low polyreactivity”; under “QVLLVESGGGLVQAGGSLRLSCAASGSTFSQYAMGWNRQAPGKERELVAAIDSGSNTKYADSVKGRFTISRDHAKNTVYLQMNSLKPEDTAVYYCAADDSYRSIGGDYWGQGTQVTVSS”, “low polyreactivity”; under “QVLLVESGGGLVQAGGSLRLSWAASGSIFTIYAMGWYRKAPGQERELVAAMNRGDGTNYADSVKGRFTISRDKAKNTVYLQMKSLKPEDTPVYYCAAEYYTEYQKWFDYWGQGTQVTLSS”, “high polyreactivity”.
Turning to “QVLLVESGGGLVQEGGSLRLSCAASGIIFQFYAMGWYRQAPGKERELVAAISRSGGITHYADSVKGRFTISRDNAKNTVYLQMNSLKPEDTAVYYCAAVRQAYPRLDYWGQGTQVTVSS”, the “polyreactivity (PSR sort gate)” value is listed as “high polyreactivity”.
Regarding “QVLLVESGGGLVQSGRSLRLSCAASGLIFSRYAMGWYRPAPGKERELVAAITSGTSTYYADSVKGRFTISRDNAKNTVYLQLNSLIPEDTAVYYCAARWLTFNARYYPYYYWGQGTQVTVSS”, the “polyreactivity (PSR sort gate)” value is recorded as “high polyreactivity”.
As to “QVLLVESGGVLVQAGGSLRLSCAASGSTFWSYAMGWYRQAPGKERELVAAISWSGDSTYYADSVKGRFTISRDNAKNTVYLQMNSLKPEDTAVYYCAADYVGGSYEYEYWGQGTQVTVSS”, the “polyreactivity (PSR sort gate)” value was “low polyreactivity”.
For the sequence “QVLLVESGPGLVQAGGSLRLSCAASGSTLYYYAMGWYRQAPGKERELVAAITWSGDSTYYADSVKGRFTISRYNAKNTVYLQMNSLIPEDTAVYYCASEVESYDQYYTYDYWGQGTQVTVSS”, the “polyreactivity (PSR sort gate)” value is given as “high polyreactivity”.
The same measure for “QVLLVVSGGGLVQAGGSLRLSCAASGFTFDTYAMGWNRQAPGKERELVAVITRGGSTNYADSVNGRFTISRDNAKNTVYLQMNSLKPEDTALYFCAAEHRNTYTFARDYYWGQGTQVTVSS”: “high polyreactivity”.
For “QVLQQESCGLVQAGCSLRMSCAASGSISTALSMGWYRQAPGKERELVATISDGASTNYADSVKGRFTISRVNAKNTVYLQMNSLKPEDTAVYYFARYYFGNFGWGQGTQVTVSS”, the “polyreactivity (PSR sort gate)” value is “high polyreactivity”.
Under “QVLRVESGGGLVQAGGSLRLSCSASGFIFRPNAMGWYRQAPGKERELVARITYRGGSTYYADSVKGRFTISRDNAKKTVYLQMNSLKPEDTEVYYCAARAVTYAGYTYNYWGQGSQVTVSS” stands “high polyreactivity”; under “QVLVVESGGCLVQAVGSLRLSCAAYGITCSRNALGWYRLAAGKERELVATITSGGSTNYADSVKGRFTISRDNAKNTVYLQMMSLKPEDPAVYFCNAVWNTFISGRSYDYWGQVTQVTVSS”, “low polyreactivity”.
Consider “QVNHVESGGGLVQAGGSLRLICAASGSTYNNAMGWYRQAPGKERELVAAIRWSGGSTYYADSVKGRFTISRDNANYTVYLQMNSLNPEDTAVYYCASAYRWSRKRYNDYDYWGQGSQVTVSS”, for which the “polyreactivity (PSR sort gate)” value is “high polyreactivity”.
The same measure for “QVNLVESGGGLVQAGGSLRLSCAASGRIFRKYAMGWYRQAPGKVREFVAAITVSGDRTYYADSVKGRFTISRDNAKNNVYLQMNSLKPEDTAVYYCATKGYYYPYVTYDYWGQGTQVTVSS”: “low polyreactivity”.
Consider “QVNLVESGGGLVQAGGSLRLSCAASGSIFSKNAMGWYRQAPGRERELVAAITSGASTNYADSVKGRFTISRDNAKNTVYLQMNSLKPEDTAVYYCASKRNGFWYGYWGQGTHVTVSS”, for which the “polyreactivity (PSR sort gate)” value is reported as “low polyreactivity”.
Under “QVNLVESGGGLVQAGGSLRLSCAASGSIFVGYAMRWYRQAPGKERELVAAISSNSASTYYADSVKGRFTISRDNAKNTLYLQMNSLKPEDTEVYYCATAYRSYWLNDYWGQGTQVTVSS” stands “low polyreactivity”.
Under “QVPLAETGGGLVQAGGSLRLSCASSGSIYRYAMGWYRKEPGKEREFVAANTWNGGSTYYADSVKGRLTRSLDYAKNTVYLPMNSLKPEDTAVYNCAADWSYFRRHFDYWVQGTQVTVSS” stands “high polyreactivity”; under “QVPLQVSGGYLVQAGGSVRLSCAASGTIYGLTALGWYRQAPGKEREFVAAITDGGNTNYADSVKGRFTISRDNAKNTVYLQMLSLKPEDTAVYYCAVLFSDDAYYAYWGQGTQVTVSS”, “low polyreactivity”; under “QVPLVESAGGLVQAGGSLRLSCAASGITLYVYAKGWYRQAPGKERELVAAINSGGNTYYADSVKGRFTISRDNAKNTVYLQMNSLKPADTAVYYCAAVYPRQVSHVWRDDYWGQGTQVTVSS”, “high polyreactivity”.
“QVPLVESGGGLVQAAGSLRLSCAASGRISLGYAMGWYRQAPGKERELVAAISRGGTNTYYADSVKGRFTISRDNAKNTVYLQMNSLKPEDTAVYYCAARYSWGQGTQVTVSS”: the “polyreactivity (PSR sort gate)” value was “high polyreactivity”.
“QVPLVESGGGLVQAGGRLRISCAASGITCTFYSMGWYREAPGKESELVAAISRRGGSTYYADSVKGRFTISRDNEKNTVYLHMNSLKPEDTAVYYCAARGYRPMDYWGQGTQVTVSS”: the “polyreactivity (PSR sort gate)” value is reported as “high polyreactivity”.
In the case of “QVPLVESGGGLVQAGGSLRISCAASGSTFWYYAMGWYRQAPGKEREMVATITSTGTTNYADSVKGRFTISRDTAKNTVYLQMNSLKPEDTAVYYCNARSWSYSYPYLTYYYIAGYWGQGTQVTVSS”, the “polyreactivity (PSR sort gate)” value was “low polyreactivity”.
The same measure for “QVPLVESGGGLVQAGGSLRLSCAASGFIFPNYVMGWYRQEPGKEREFVAGISVRGGRTYYADSVKGRFTISRDNAKNTVYLQMNSLKPEDTAVYYCAADRKASAFNYWGQGTQVTVSS”: “high polyreactivity”; for “QVPLVESGGGLVQAGGSLRLSCAASGLTFRDNAMGCSRQAPGKERELVAALSTNGGSTYYADSVTGRFTISRDNAKNTVYLQLNSLKPEDTALYVCAKSFLPQYPQVDSDYWGQGTQVTVSS”: “low polyreactivity”.
Under “QVPLVESGGGLVQAGGSLRLSCAASGRTFPRYAMGWYRQAPGKERELVATISSGGSTNYADSVKGRFTISLDNAKNTVYLQMNSLKPEDTAVYYCAARYGRTYTRVGYWGQGTQVTVSS” stands “high polyreactivity”; under “QVPLVESGGGLVQAGGSLRLSCAASGSIFTVYAVGWYRQAPGKERELVASIRFSSGRTYYADSVKGRFTISRDNAKNTVYLHMTSLKPEDTAVYYCAAETVSWYRYYYWGQGTQVTVSS”, “high polyreactivity”.
With “QVPLVESGGGLVQSGGSLRLSCAASGSTCSRNAMGWYREAPGKERELVAAINDSGGSTYYADSVKGRFTISRDMAKNTVYLQMNSLKPEDTAVYYCNAVSPYYWDFRYDYWGQGTQVTVSS”, the “polyreactivity (PSR sort gate)” value is on record as “high polyreactivity”.
Under “QVPLVESGVGLVQAGGSLRLSCAASGYTFYSYAMGWYRQAPGKEREFVAAIRTGGGTNYADSVKGRFTISRDNAKNTVYLQMNSLKPEDTAVYYCAARYYSQKSYIGFRPGYEYWGQGTQVTVSS” stands “low polyreactivity”.
